Among the data in the Immune Epitope Database (IEDB) are Kd values, retold here.

Experiment [1] deals with HLA-B*40:01. In words: IEDB peptide-MHC binding, purified MHC/competitive/radioactivity; filed as Kd, often an IC50 or EC50 that approximates it; ≥ and ≤ were set here for values at or beyond the usual limits of such assays.
Experiment [2] has as its target HLA-B*44:03. The experiment is described as above.
The target in experiment [3] is HLA-A*30:02. The experiment is described as above.
Experiment [4] has as its target HLA-A*01:01. The experiment is described as above.
For experiment [5], the target named is HLA-B*53:01. The experiment is described as above.
The target of experiment [6] is HLA-A*30:01. The description is as above.
Experiment [7] has as its target HLA-A*26:01. The description is as above.
In experiment [8] the target is HLA-A*29:02. Described as above. Conditions: source organism: Lassa virus Josiah.
The target in experiment [9] is HLA-A*32:01. The description is as above. To be noted: source organism: Lassa virus Josiah.
Experiment [10] deals with HLA-B*44:02. Described as above.
In experiment [11] the target is HLA-B*15:01. The description is as above.
The target in experiment [12] is HLA-A*24:02. The experiment is described as above.
Experiment [13] has as its target HLA-A*23:01. The experiment is described as above.
Experiment [14] has as its target HLA-A*68:01. The experiment is described as above. Conditions: source organism: Dengue virus 2 Jamaica/1409/1983.
Experiment [15] concerns the target HLA-B*46:01. Description: IEDB peptide-MHC binding, purified MHC/direct/fluorescence; filed as Kd, often an IC50 or EC50 that approximates it; ≥ and ≤ were set here for values at or beyond the usual limits of such assays. To be noted: source organism: Mammarenavirus lassaense.
The target in experiment [16] is HLA-B*15:01. Described as above. Conditions: source organism: Mammarenavirus lassaense.
Experiment [17] deals with HLA-B*57:01. The description is as above. Conditions: source organism: Bacillus mycoides.
Experiment [18] concerns the target HLA-B*58:01. The experiment is described as above. Conditions: source organism: Bacillus mycoides.
The mark [19] stands for this setting: source organism: Dengue virus 1 Brazil/97-11/1997.
The mark [20] stands for this setting: source organism: Dengue virus 4 Philippines/H241/1956.
Setting [21] is: source organism: Lassa virus Josiah.
[22] abbreviates: source organism: Dengue virus 3 Martinique/1243/1999.
[23] abbreviates: source organism: Vaccinia virus WR.
[24] abbreviates: source organism: Vaccinia virus Copenhagen.
Setting [25] is: source organism: Dengue virus 2 Jamaica/1409/1983.
The mark [26] stands for this setting: source organism: Dengue virus 1 Singapore/S275/1990.

As usually defined, the Kd is the free concentration of one partner at which half of the binding sites on the other are occupied at equilibrium, for simple one-to-one binding. For the sequence AETQHGTVL, the Kd worked out at 0.32 nM in experiment [1] (setting [19]) and 52.7 nM in [2] (setting [19]).

Turning to ASLVMLLVHY, the Kd in [2] (setting [20]) is at least 70100 nM; in [3] (setting [20]) it was 1900 nM; in [4] (setting [20]), 1830 nM.

As for CPLLVNTEPE, the Kd in [5] (setting [20]) worked out at 1650 nM.

Regarding CWLVSNGSY, the Kd is 16900 nM in [6] (setting [21]); at least 34400 nM in experiment [7] (setting [21]); 543 nM in [8]; 6.3 nM in experiment [3] (setting [21]); 13900 nM in experiment [4] (setting [21]); 18800 nM in experiment [9].

DIMGIPYCNY: the Kd is at least 70400 nM in [6] (setting [21]); 541 nM in experiment [7] (setting [21]); 105 nM in [8]; 444 nM in experiment [3] (setting [21]); at least 28900 nM in experiment [4] (setting [21]); at least 69900 nM in [9].

EEESEGAIW: the Kd in experiment [10] (setting [22]) amounted to 33.7 nM; in [2] (setting [22]), 67.7 nM.

In the case of EENMDVEIW, the Kd in experiment [10] (setting [19]) was 82.8 nM; in experiment [2] (setting [19]), 123 nM.

As to EPIPMATYGW, the Kd in [7] (setting [19]) is at least 69700 nM; in [5] (setting [19]), 13.2 nM.

Take ERRYVNVHF: the Kd in experiment [11] (setting [23]) came out at 7380 nM.

In the case of FIRMLILNF, the Kd in experiment [11] (setting [24]) turned out to be 7450 nM.

On to FQYSDRRWCF, for which the Kd in [12] (setting [19]) amounted to 2480 nM; in [13] (setting [19]) it was 272 nM; in [11] (setting [19]), 3.88 nM.

Turning to FSHDHIGHG, the Kd in experiment [11] (setting [23]) is 31.9 nM.

For the sequence FTMRLLSPVR, the Kd is 9070 nM in [6] (setting [25]) and 7.73 nM in experiment [14].

With FTTRHRKPTY, the Kd is 1960 nM in experiment [6] (setting [20]) and at least 23600 nM in experiment [4] (setting [20]).

With GAIDLCRHF, the Kd in experiment [11] (setting [23]) was 117 nM.

Turning to GESSPSPTV, the Kd in experiment [10] (setting [22]) stood at 744 nM; in [1] (setting [22]), 9.6 nM.

For GEVGAIALDF, the Kd is 21.5 nM in experiment [10] (setting [19]) and 23.5 nM in experiment [2] (setting [19]).

As for GVYPLSIPAT, the dissociation constant Kd in [6] (setting [26]) stood at 1900 nM.

Take HAIVINPFV: in experiment [6] (setting [23]), the Kd stood at 221 nM.

In the case of HEHKSTWHY, the Kd was found to be 19.8 nM in [10] (setting [26]) and 9.11 nM in [2] (setting [26]).

IIKSSYVFK: in experiment [6] (setting [23]), the dissociation constant (Kd) came out at 10.9 nM.

Turning to IMGIPYCNY, the Kd in [15] was at least 20000 nM; in experiment [16], 43 nM.

In the case of IMMLKLLTDF, the Kd in [11] (source organism: Dengue virus 1 Nauru/West Pac/1974) worked out at 18.8 nM.

Consider IQKETLVTF, for which the Kd in experiment [12] (setting [25]) was 1560 nM; in experiment [13] (setting [25]), 40.5 nM; in experiment [11] (setting [25]) it was 1.61 nM.

Take ISKTSIACF: the Kd in experiment [11] (setting [24]) worked out at 10800 nM.

Regarding ITFQSILGY, the Kd worked out at 70.7 nM in experiment [17] and 57.3 nM in experiment [18].

In the case of ITNELNYVLW, the Kd in experiment [5] (setting [20]) came to 483 nM.

Turning to IWGRKSWPLN, the Kd in [6] (setting [19]) was determined as 2050 nM.

As for KAYLYTEYF, the Kd in experiment [11] (setting [23]) amounted to 7.64 nM.

Regarding KEEESEGAIW, the Kd was found to be 58.4 nM in [10] (setting [22]) and 90.9 nM in [2] (setting [22]).

With KEGDQYVYM, the Kd in [1] (setting [19]) stood at 397 nM.

KEISNMLNIM: the Kd in experiment [1] (setting [26]) was found to be 8.34 nM.

On to KEISSMLNI, for which the figures for the dissociation constant (Kd) in experiment [10] (setting [19]), in experiment [1] (setting [19]) and in experiment [2] (setting [19]) were 38.9 nM, 262 nM and 76.6 nM, respectively.

In the case of KEYCVECYM, in [11] (setting [23]), the Kd turned out to be 4620 nM.
